Assay results: patent US20240376151A1, “STAPLED PEPTIDES AND METHODS THEREOF” (FOG PHARMACEUTICALS, INC., priority 2022, published 2024)

Target: T1, beta-catenin (Homo sapiens, UniProt P35222)
T1 construct: made in house; host or cells: E. coli BL21 (DE3) pLysS
T1 sequence (P35222 134-665): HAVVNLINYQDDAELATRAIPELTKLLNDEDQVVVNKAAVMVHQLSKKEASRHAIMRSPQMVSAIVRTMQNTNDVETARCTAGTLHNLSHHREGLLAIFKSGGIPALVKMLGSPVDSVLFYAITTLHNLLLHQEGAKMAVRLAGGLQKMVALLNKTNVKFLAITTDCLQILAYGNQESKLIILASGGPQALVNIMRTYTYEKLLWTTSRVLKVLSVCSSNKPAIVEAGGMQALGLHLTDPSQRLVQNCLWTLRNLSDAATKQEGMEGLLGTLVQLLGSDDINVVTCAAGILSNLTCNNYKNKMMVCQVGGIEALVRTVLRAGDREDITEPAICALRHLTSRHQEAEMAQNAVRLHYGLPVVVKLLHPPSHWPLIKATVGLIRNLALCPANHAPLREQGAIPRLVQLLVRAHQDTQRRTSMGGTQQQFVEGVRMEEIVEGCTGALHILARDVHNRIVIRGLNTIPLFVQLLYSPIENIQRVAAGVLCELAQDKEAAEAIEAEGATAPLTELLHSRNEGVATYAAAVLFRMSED
Assay: Phage Library Screening with NGS, beta-catenin
Format: binding
Details: for Target Concentration 10 (phage screen NGS readout): beta-catenin target concentration 10; for Target Concentration 10 (phage screen NGS readout) / Target Concentration 30 (phage screen NGS readout) / Target Concentration 100 (phage screen NGS readout) / Target Concentration 300 (phage screen NGS readout): no competitor; for Target Concentration 30 (phage screen NGS readout): beta-catenin target concentration 30; for Target Concentration 100 (phage screen NGS readout): beta-catenin target concentration 100; for Target Concentration 300 (phage screen NGS readout): beta-catenin target concentration 300; for Target Concentration 1000 (phage screen NGS readout): beta-catenin target concentration 1000

| Target Concentration BLANK (phage screen NGS readout) (first column) | Target Concentration BLANK (phage screen NGS readout) (fourth column) | Target Concentration BLANK (phage screen NGS readout) (second column) | Target Concentration BLANK (phage screen NGS readout) (third column) | Target Concentration 10 (phage screen NGS readout) | Target Concentration 30 (phage screen NGS readout) | Target Concentration 100 (phage screen NGS readout) | Target Concentration 300 (phage screen NGS readout) | Target Concentration 1000 (phage screen NGS readout) (first 1000 column) | Target Concentration 1000 (phage screen NGS readout) (second 1000 column) | Sequence |
| --- | --- | --- | --- | --- | --- | --- | --- | --- | --- | --- |
| 0 | 0 | 0 | 0 | 0 | 0 | 3 | 34 | 21 | 38 | DPATIRCYEAAFMCQYW |
| 0 | 0 | 0 | 0 | 2 | 10 | 81 | 147 | 203 | 280 | DPATWHCDWAAEHCELL |
| 0 | 0 | 0 | 0 | 0 | 4 | 21 | 44 | 31 | 66 | DPAVDECIIAAHICHIW |
| 0 | 0 | 0 | 0 | 0 | 2 | 47 | 39 | 49 | 73 | DPAVEDCVLAAHVCAWF |
| 0 | 0 | 0 | 0 | 0 | 0 | 10 | 28 | 10 | 81 | DPAVFECSLAAIDCLQI |
| 0 | 0 | 2 | 1 | 0 | 0 | 0 | 1 | 2 | 7 | DPAVFMCYEAAFECQYF |
| 0 | 0 | 2 | 0 | 0 | 2 | 11 | 86 | 95 | 62 | DPAVHRCFWAAEHCDLI |
| 0 | 0 | 1 | 0 | 0 | 0 | 0 | 0 | 3 | 3 | DPAVIACYDAAFVCEYF |
| 0 | 0 | 0 | 3 | 0 | 0 | 0 | 13 | 12 | 30 | DPAVIQCYQAAFHCDYQ |
| 0 | 0 | 0 | 0 | 0 | 1 | 0 | 10 | 39 | 3 | DPAVLDCHIAALDCHAH |
| 0 | 0 | 0 | 0 | 0 | 1 | 22 | 67 | 140 | 55 | DPAVLECHIAAWECNHT |
| 0 | 0 | 0 | 0 | 0 | 0 | 24 | 83 | 91 | 45 | DPAVLECHIAAWECRMD |
| 0 | 0 | 0 | 0 | 0 | 0 | 1 | 6 | 4 | 5 | DPAVLQCYEAAFICEYM |
| 0 | 0 | 0 | 1 | 0 | 0 | 0 | 4 | 12 | 0 | DPAVMACYEAAFQCAYW |
| 0 | 1 | 1 | 0 | 0 | 9 | 10 | 158 | 104 | 157 | DPAVQDCEWAAIYCELI |
